Test results as given in US9655377, “Methods of controlling fructan synthesis in plants” (COMMONWEALTH SCIENTIFIC AND INDUSTRIAL RESEARCH ORGANISATION).

Experiments:
[1] = target: T1, TaMYB13-1 (correctly spliced form) (Triticum aestivum); assay: CELD reporter plate assay, 25 mM HEPES pH 7.0, 50 mM KCl; self-competition at 2.5x reduced binding about 60%; details: tags: C-terminal 6xHis-tagged CELD cellulase reporter fusion; label: biotin
T1 chain: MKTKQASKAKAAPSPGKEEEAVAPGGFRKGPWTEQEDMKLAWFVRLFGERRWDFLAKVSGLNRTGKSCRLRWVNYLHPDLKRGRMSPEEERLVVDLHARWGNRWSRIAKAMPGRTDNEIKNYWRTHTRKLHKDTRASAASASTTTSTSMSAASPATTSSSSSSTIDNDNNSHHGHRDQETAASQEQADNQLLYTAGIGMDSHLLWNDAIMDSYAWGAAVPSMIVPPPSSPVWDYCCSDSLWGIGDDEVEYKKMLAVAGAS
Procedure: (§1) The DNA-binding activity of TaMYB13-CELD was measured as described previously (Xue, 2002a) using streptavidin-coated 96-well plate and binding/washing buffer (25 mM HEPES/KOH, pH 7.0, 50 mM KCl, 0.2 mM EDTA and 0.5 mM DTT) containing 0.15 µg µl^-1 shared herring sperm DNA, 0.3 mg ml^-1 bovine, serum albumin, 10% glycerol and 0.025% Nonidet P-40. 40,000 fluorescent units h^-1 of the CELD activity of TaMYB13-CELD protein and 2 pmol of biotinylated probes were used per assay. […]
(§2) Binding site competition assays were as described by Xue (2002). […] Relative TaMYB13 binding activity was expressed as fluorescence units (FU) of methylumbelliferyl group generated from MUC hydrolysis by TaMYB13-CELD that bound to an immobilised biotin-labelled probe after 3-h incubation of cellulase assay.
(§3) To further analyse the relative binding affinity of the previously reported plant R2R3 MYB protein sites in relation to the preferred TaMYB13-binding site, a binding site competition analysis was performed. Relative TaMYB13 binding activity to three biotin-labelled probes (SynO2m14, MYB.Ph3-II and MRE2) was assessed in combination with or without one of the four unlabelled competitors in a 2.5-fold amount: SynO2m14, MYB.Ph3-II, MRE2 and AC-I. The addition of a 2.5-fold amount of unlabelled SynO2m14 to biotin-labelled SynO2m14 reduced the TaMYB13 binding activity by about 60%. […]

[2] = target: T1, TaMYB13-1 (correctly spliced form); assay: CELD reporter assay; positive control; details: tags: C-terminal 6xHis-tagged CELD cellulase reporter fusion; label: biotin
Procedure: (§4) The DNA-binding activity of TaMYB13-CELD was measured as described previously (Xue, 2002a) using streptavidin-coated 96-well plate and binding/washing buffer (25 mM HEPES/KOH, pH 7.0, 50 mM KCl, 0.2 mM EDTA and 0.5 mM DTT) containing 0.15 µg µl^-1 shared herring sperm DNA, 0.3 mg ml^-1 bovine, serum albumin, 10% glycerol and 0.025% Nonidet P-40. 40,000 fluorescent units h^-1 of the CELD activity of TaMYB13-CELD protein and 2 pmol of biotinylated probes were used per assay. The cellulase activity of TaMYB13-CELD proteins bound to immobilised biotinylated probes was assayed by incubation in 100 μl of the CELD substrate solution [1 mM methylumbelliferyl β-D-cellobioside (MUC) in 50 mM Na-citrate buffer, pH 6.0] at 40° C. for 3 h. A biotin-labelled double-stranded oligonucleotide without a TaMYB13 binding site was used as a control of background activity.

[3] = target: T1, TaMYB13-1 (correctly spliced form); assay: assayed oligonucleotide may be longer; details: tags: C-terminal 6xHis-tagged CELD cellulase reporter fusion
[4] = target: T1, TaMYB13-1 (correctly spliced form); assay: no or negligible activity; did not compete with SynO2m14; details: tags: C-terminal 6xHis-tagged CELD cellulase reporter fusion; label: biotin
Procedure: as §1, §2, §3

[5] = target: T1, TaMYB13-1 (correctly spliced form); assay: no or negligible activity; details: tags: C-terminal 6xHis-tagged CELD cellulase reporter fusion; label: biotin
[6] = target: T1, TaMYB13-1 (correctly spliced form); assay: no or negligible activity, relative to SynO2m14; details: tags: C-terminal 6xHis-tagged CELD cellulase reporter fusion; label: biotin
[7] = target: T1, TaMYB13-1 (correctly spliced form); assay: background control; details: tags: C-terminal 6xHis-tagged CELD cellulase reporter fusion; label: biotin
Procedure: as §4

[8] = target: T1, TaMYB13-1 (correctly spliced form); assay: higher affinity than Ta1-SST S1; assayed oligonucleotide may be longer; details: tags: C-terminal 6xHis-tagged CELD cellulase reporter fusion
Procedure: as §4

[9] = target: T1, TaMYB13-1 (correctly spliced form); assay: higher affinity than S3; assayed oligonucleotide may be longer; details: tags: C-terminal 6xHis-tagged CELD cellulase reporter fusion
Procedure: as §4

[10] = target: T1, TaMYB13-1 (correctly spliced form); assay: relative to SynO2m14; details: tags: C-terminal 6xHis-tagged CELD cellulase reporter fusion; label: biotin

B1: SynO2m14 (dsDNA)
DNA 1: TCGAGGGAATAAAGTTAGGTAAGATGT
DNA 2: ACATCTTACCTAACTTTATTCCCTCGA
- binding result [1]: binds

B2: SynO2 (dsDNA)
DNA 1: TCGACCGAATAAAGTTTGGTATGATGT
DNA 2: ACATCATACCAAACTTTATTCGGTCGA
- binding result [2]: binds

B3: Hv6-SFT S1 site (dsDNA)
DNA 1: TATGTTAGGTAC
DNA 2: GTACCTAACATA
- binding result [3]: binds

B4: AC-I (rev-comp) (dsDNA)
DNA 1: TCGAGGGAATAAGGTAGGTGGATGATGT
DNA 2: ACATCATCCACCTACCTTATTCCCTCGA
- binding result [4]: no binding

B5: MRE (rev-comp) (dsDNA)
DNA 1: TCGAGGGAATAATTTTTGGTTTGATGT
DNA 2: ACATCAAACCAAAAATTATTCCCTCGA
- binding result [5]: no binding

B6: MYB.Ph3-I (dsDNA)
DNA 1: TCGAGGGAATAAAAACGGTTATGATGT
DNA 2: ACATCATAACCGTTTTTATTCCCTCGA
- binding result [6]: no binding

B7: control without TaMYB13 site (dsDNA)
DNA 1: GAGAATTTGCCGTTTATCTAGAAATTACCT
DNA 2: AGGTAATTTCTAGATAAACGGCAAATTCTC
- binding result [7]: no binding

B8: Ta1-SST S2 site (dsDNA)
DNA 1: ATGTTCGGTAA
DNA 2: TTACCGAACAT
- binding result [8]: binds

B9: Ta6-SFT1 S1 site (dsDNA)
DNA 1: TGTTAGGTTCGGTT
DNA 2: AACCGAACCTAACA
- binding result [9]: binds

B10: AC-III (dsDNA)
DNA 1: TCGAGGGAATAAAGTTAGGTTATGATGT
DNA 2: ACATCATAACCTAACTTTATTCCCTCGA
- binding result [10]: binds
